According to publication PMC2872656:

Biological target: Pyrococcus abyssi PAB1135 protein (trypsin-treated) (Pyrococcus abyssi) (UniProt Q9UXX8)
Experiment: SEC; trypsin-treated PAB1135 on Superdex 75 XK 16/60; 50 mM Tris-HCl pH 8.0, 150 mM NaCl, 0.5 mM EDTA; apparent mass against mass markers

stoichiometry N: 2
Substance: Pyrococcus abyssi PAB1135 protein (trypsin-treated) (from UniProt Q9UXX8 1-154) (natural protein)
